Source: the MegaScale stability set (Tsuboyama et al. 2023)

B1: 6YSE (parent)
chain: HERALMVNRLQKLTRMLRVHPDPKWKQEQQELIKRLK

Variants of: B1
Experiment: folding stability dG (cDNA display proteolysis); higher = more stable
Conditions: PBS, room temperature

Folding stability dG [kcal/mol] of substitutions, site by site:
H20: A 0.952 | I 1.06 | W 1.39 | M 1.06 | T 1.13 | L 0.97 | N 1.26 | Q 0.946 | G -0.186 | Y 1.47 | R 1.19 | D 1.3 | E 0.232 | K 1.57 | F 1.39 | S 1.26 | V 0.774
I33: S -0.232 | F 0.663 | G -0.702 | A 0.217 | K 0.269 | H -0.268 | E -0.101 | T 0.17 | N 0.375 | Q -0.155 | V 0.738 | M 0.592 | Y 0.751 | L 1.17 | R 0.898 | W 0.93
D22: G 0.117 | T 1.13 | V 0.67 | W 0.947 | I 0.677 | H 1.3 | M 0.675 | Y 1.14 | F 1.07 | L 1.22 | A 0.299 | N 1.67 | E 0.749 | K 1.23 | S 1.09 | R 1.06
L13: I 1.07 | V 0.655 | C -0.58
Q30: W 1.39 | H 0.978 | E 1.38 | C 1.75 | T 1.13 | A 1.07 | Y 1.04 | G 0.68 | D 0.872 | M 1.42 | V 1.1 | I 1.37 | F 0.851 | R 1.21 | S 1.11 | L 1.52 | N 0.979 | K 0.968
W25: N 0.386 | I 1.62 | A 0.973 | F 1.25 | D 0.337 | Q 0.755 | G 0.387 | M 1.71 | S 0.206 | Y 1.32 | V 1.22 | H 0.686 | K 0.636 | R 0.719 | T 0.731 | L 1.97
L17: Q -0.895 | M 0.852 | A -0.037 | I 1.09 | Y 0.234 | C -0.743 | V -0.191 | N 0.006 | R -0.68 | S -0.127
K26: M 1.29 | G -0.052 | Y 1.17 | A 0.85 | H 1.01 | W 0.964 | I 1.4 | Q 1.03 | T 0.715 | V 1.16 | C 0.732 | D -0.129 | R 1.32 | S 0.461 | F 1.53 | E 1.14 | L 1.45 | N 0.211
P23: H 0.269 | V 0.701 | K 0.967 | E 0.721 | A 1.03 | Y 0.554 | D 0.676 | L 0.804 | Q 0.666 | S 0.806 | M 0.09 | R 0.598 | I 0.608 | F 0.718 | T 0.669 | N 0.238 | G 0.641 | W 0.75
E28: T -0.079 | Y 0.612 | Q 0.317 | R -0.089 | A 0.638 | L 0.849 | W 0.824 | N -0.895 | D -0.285 | I 1.05 | V 0.452 | F 0.366 | S -0.485 | M 0.854
R15: H 1.12 | Y 0.918 | I 1.14 | M 1.33 | T 0.631 | V 0.95 | N 1 | Q 1.48 | G 0.365 | W 0.914 | E 1.42 | F 0.829 | A 1.32 | L 1.31 | D 1.01
P21: R 0.878 | M 1.13 | C 0.966 | E 1.09 | I 0.664 | Q 1.36
